This is an account of results in the supplement of paper PMC12042874.

The series is described as follows: amyloid nucleation score (Sup35N fusion, yeast selection) (log enrichment); library NNK3; higher = more nucleation; inactive = no reads after selection. In outline: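 The nucleation score, computed with DiMSum, is the log enrichment of output over input reads, centred on the mode score of non-aggregating sequences. Sequences with under 100 input reads were dropped. Reads were generated by Illumina sequencing of plasmid inserts from psi-negative yeast with Sup35N fused to peptides of 20 random codons, induced with 100 μM copper sulfate for 24 hours and grown 7 days at 30°C on medium lacking adenine and uracil.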

± gives the uncertainty stated by the source.

In the case of DFSKVNDQTADSYMWCSVDS, the amyloid nucleation score entry was “inactive”.
Consider TRNWLDSRKLD, for which the amyloid nucleation score entry was “inactive”.
Substance RYLILMDCFR had an amyloid nucleation score of 0.291 ± 0.23.
Consider SMNFVLLRGGRRMIQQDRVR, for which the amyloid nucleation score result was “inactive”.
As to WASDNVEGDWWYWW, the amyloid nucleation score stood at 0.017 ± 0.57.
The value for QFESSSFRYVAVCSVCAFSI was 1.73 ± 0.099; that for FNIEASYAPVRCCCKPLLAR was “inactive”; that for VHYGNGLRWLGSLVYMGGCI was “inactive”.
As for RWSGHTWTCVQDRMVCICNS, the amyloid nucleation score result is “inactive”.
The value for SRSDKNHRNVANLNGVWCVT was “inactive”; that for NWLCDRVRCCWKLNNNDMKL was -0.22 ± 0.88.
As to VNKVDGLETMQYIFTCGSWM, the amyloid nucleation score turned out to be 0.098 ± 0.23.
PIYDRFTSKIACLNMMVDLR yielded an amyloid nucleation score of 0.101 ± 0.29.
On to SGYRIRVIHNMWAVGVKKRN, for which the amyloid nucleation score was -0.487 ± 0.78.
Regarding EYQTNNDYLQLTCLKSSWSS, the amyloid nucleation score result is “inactive”.
The value for RRPSQRLLGHIKVLWRNTTI was “inactive”; that for DDRSP was “inactive”.
On to RVIYG, for which the amyloid nucleation score entry was “inactive”.
For the substance AYSSHFTCRPYGFNLWSLGS, the amyloid nucleation score entry was “inactive”.
As to TYFILSDCQASNIFSPMSDE, the amyloid nucleation score amounted to 0.478 ± 0.14.
In the case of IFWVSRSDA, the amyloid nucleation score result is “inactive”.
With YISIYFSFNRLIVNATSTTK, the amyloid nucleation score result was “inactive”.
Take SGKHPSYNREPKGSVSVLGA: the amyloid nucleation score result is “inactive”.
For the substance CFSELIYMLLNVDGNFSLRV, the amyloid nucleation score entry is “inactive”.
On to YFYSSDALPSIS, for which the amyloid nucleation score entry is “inactive”.
For the substance SKFRFGRVNLNVT, the amyloid nucleation score entry is “inactive”.
Turning to HNGARG, the amyloid nucleation score entry is “inactive”.
As to IRFPTHSMYSLLYKRFLSPD, the amyloid nucleation score was -0.744 ± 1.8.
Turning to HYVPVASDVRGMIYFRSFEW, the amyloid nucleation score result was “inactive”.
For the substance GRCSQGSLGSAG, the amyloid nucleation score result was “inactive”.
GVIIRFWYWQDYAASLEYTC: the amyloid nucleation score entry was “inactive”.
Turning to YTLVVQTSMVVFLRLYSGRY, the amyloid nucleation score result was “inactive”.
As for CDFTKSNDTCMDTASMSLLV, the amyloid nucleation score entry is “inactive”.
Under SGATLLC stands “inactive”.
The value for LKIGTFCSNPGSLIVVYLTV was “inactive”; that for SGFILSCMLNPGTFTNDLMG was “inactive”; that for PNHEFYRARFRLCNAICTTV was “inactive”.
Take LAPFLFCRNNF: the amyloid nucleation score result is “inactive”.
With YCLTLNHAMIRFGMCCHYMC, the amyloid nucleation score result is “inactive”.
In the case of WSYNITK, the amyloid nucleation score result is “inactive”.
Regarding GLLCFK, the amyloid nucleation score entry is “inactive”.
As for DFDNLFYTTLNSQFPRTRFV, the amyloid nucleation score entry was “inactive”.
The value for SRFLLRNCPFLSGHVFTSQT was “inactive”; that for CLFRQTFCMGP was “inactive”.
In turn, LCPRRMA registered an amyloid nucleation score of 0.592 ± 0.29.
In turn, IMYSYNGRLCGTIELSFPGL returned an amyloid nucleation score of 0.814 ± 0.26.
Regarding CRGGNFRPMEGATVNPLFEG, the amyloid nucleation score entry was “inactive”.
In the case of GMLGTGYVYPCWL, the amyloid nucleation score result was “inactive”.
Under TIYLDNTQLSLFRIGPVARR stands 1.9 ± 0.094; under HYNVPL, “inactive”.
As to ATLDTER, the amyloid nucleation score result is “inactive”.
In the case of YQKFNKLRLRNLPHLYDFVL, the amyloid nucleation score result is “inactive”.
Under VLVLS stands “inactive”; under IYCKVVALKRFHWMEAYA, “inactive”.
The value for VLVIGMWKTFYNYMQILCQA was “inactive”; that for PDYEHKVSLLEGKRAYLEHF was “inactive”.
On to TGRYVNWRASLSFAYNRMMI, for which the amyloid nucleation score result was “inactive”.
The value for SDLASASFCGH was 0.676 ± 0.2; that for VFIKLPVRSS was -0.192 ± 0.96.
Turning to CCRLVRHFE, the amyloid nucleation score entry was “inactive”.
Consider DERKPVGSHDGYSYVSVVTR, for which the amyloid nucleation score result was “inactive”.
On to YFSSSWGMLKCGFAVFDHLT, for which the amyloid nucleation score result was “inactive”.
Under PMLVALWCMGKTN stands -0.521 ± 1.4; under RKQRNWCTTPVVRFRVYGYA, “inactive”.
For GRHSALRASFGL, the amyloid nucleation score entry was “inactive”.
In the case of CTDIICMIRFVVLDMRGAN, the amyloid nucleation score stood at 0.981 ± 0.12.
The substance DLNIKYMVWACTSVRDCRYY displayed an amyloid nucleation score of 1.01 ± 0.085.
TGQQE: the amyloid nucleation score entry was “inactive”.
In the case of CYWTYVRLSSVFRDHIVALT, the amyloid nucleation score entry was “inactive”.
Regarding PTYAC, the amyloid nucleation score result was “inactive”.
As to LNIMVE, the amyloid nucleation score result is “inactive”.
On to AVRWQSGSTRFLSCWLWQKN, for which the amyloid nucleation score result was “inactive”.
ISPVRRWPQLLIYAMVTGGQ: the amyloid nucleation score result was “inactive”.
The value for VKPLSRY was “inactive”; that for LFDLVYRWTWNED was -0.592 ± 0.76.
Under MFTTSCWILKER stands 0.248 ± 0.23; under VICFAARALVYC, “inactive”; under MAFYQHDILTMFLYRFRDAR, “inactive”.
The value for FNYKARYSNPVRDAIYWLQI was “inactive”.
For FAYLVS, the amyloid nucleation score result was “inactive”.
With MYEVVRVKYMVAQQFNISSE, the amyloid nucleation score entry is “inactive”.
With VYSLE, the amyloid nucleation score result is “inactive”.
In the case of TSDSMSLNFVTWVNQI, the amyloid nucleation score entry is “inactive”.
The value for YSCYSSLL was “inactive”; that for RDKKNNRVYFGGYSLGTWSC was “inactive”.
For ARSIFARLQYSHLSSRGEVI, the amyloid nucleation score is 0.018 ± 1.
Turning to IYKSQMLEFVEVVRSYMPVQ, the amyloid nucleation score entry is “inactive”.
With NYYRC, the amyloid nucleation score entry is “inactive”.
Under VTFYFSYMCAKGTH stands 0.53 ± 0.17.
On to SLLTFCFHIESLWMWYWMCH, for which the amyloid nucleation score entry was “inactive”.
In the case of NLTGCMDLC, the amyloid nucleation score amounted to 0.853 ± 0.19.
On to KVFWHDVILTCG, for which the amyloid nucleation score result is “inactive”.
On to QGFFGDNNAV, for which the amyloid nucleation score entry is “inactive”.
LAVALIIRMSYLELGLLNPT: the amyloid nucleation score entry is “inactive”.
Under GPDWYWNLNV stands “inactive”.
The substance SSSTVYISVLVINHIDGSIR came in with an amyloid nucleation score of 2.42 ± 0.051.
With TKSYSMVSPIRVLNTDLIY, the amyloid nucleation score entry was “inactive”.
The substance LFDVKDRSTMVVVIPCFHGS had an amyloid nucleation score of 2.23 ± 0.065.
The value for RCNPGLVCLGCTFVSRNAYS was 1.67 ± 0.081; that for IYALDNHGTCGRGHAFYNMV was “inactive”; that for PNEMGSSVMENNWTIHNFGM was “inactive”.
RSVAVITRCSNNGRSHKC: the amyloid nucleation score result was “inactive”.
Under EMVLGWSARFCDK stands 1.65 ± 0.088; under IKCVCFLCPNQ, 1.02 ± 0.19.
With VFHWSKLSFVEYHGKCGRSS, the amyloid nucleation score entry was “inactive”.
The value for CRTTRLTLNGVIVGNAGFSI was “inactive”; that for WLGKYVLVSEYIV was “inactive”; that for RYRGMGQNMT was “inactive”.
Take DVRMLRLMVRELYC: the amyloid nucleation score result is “inactive”.
With WSGNCFNQSKLAWYDHYHQW, the amyloid nucleation score entry is “inactive”.
As to WLYARISADHDCLLKPELRM, the amyloid nucleation score result was “inactive”.
Under HGDDCGDRDCGGRKECTGIA stands “inactive”; under YLRQIYFPCSTP, “inactive”.
In the case of VSGWFDWDFLDDNGQYWLHV, the amyloid nucleation score result was “inactive”.
Regarding RMIRNDFMITLEWGDSGGYH, the amyloid nucleation score stood at 1.28 ± 0.097.
The substance CFRAGVIFIWGVHNSYYRTS registered an amyloid nucleation score of 2.23 ± 0.082.
WFWRVNIMKTIGLSHSRHEG: the amyloid nucleation score result is “inactive”.
Regarding CIIRVYCFWFTDGDFYVLYR, the amyloid nucleation score result was “inactive”.
Take SYGLKISLSHTFRSGRGMCG: the amyloid nucleation score result is “inactive”.
For the substance HWGRDFLGFVTAFDGCVSQL, the amyloid nucleation score result was “inactive”.
For FIVVPVGVKHDVS, the amyloid nucleation score result is “inactive”.
Under RYMFVVRTMPV stands “inactive”; under HSVSLNYLGIR, “inactive”.
On to GSMMSCWRLAESWVVSKPPG, for which the amyloid nucleation score result was “inactive”.
Consider LRWCGSVFLFGGCRGTVVSW, for which the amyloid nucleation score result is “inactive”.
YIALLLLSRWDQTCKGARTG came in with an amyloid nucleation score of 0.622 ± 0.18.
With NNERITWERDIRSRCFPVLV, the amyloid nucleation score entry was “inactive”.
The value for KGFFFCRTYVSSFWTKIGIF was “inactive”; that for LSSDNCTFPFHRLGGYKQSY was “inactive”.
The value for RCGHFLYEFL was “inactive”; that for LMFYGFYLVLRGS was “inactive”.
The value for CFAIWVCKSVR was “inactive”; that for RFGGVLVVFGEWNDVVREAV was “inactive”.
